Legend:
FES^WT [1] = biological target: T1, FES^WT (Homo sapiens, UniProt P07332); test: In vitro TR-FRET kinase assay; assay type: biochemical; conditions: TR-FRET assay, 5 µM ATP; n = 3
T1 construct: human FES cDNA encoding residues 448–822 or human FER cDNA encoding residues 448–820 was amplified by PCR; made in house; host or cells: E. coli BL21(DE3), co-expressing YopH phosphatase
Protocol: All measurements were performed in triplicate.

FES^S700C = FES^S700C (Homo sapiens, UniProt P07332, S700C); test: In vitro TR-FRET kinase assay; assay type: biochemical; set-up: human FES cDNA encoding residues 448–822 or human FER cDNA encoding residues 448–820 was amplified by PCR; made in house; host or cells: E. coli BL21(DE3), co-expressing YopH phosphatase
FES^WT [2] = biological target: T1, FES^WT; test: PamChip microarray peptide phosphorylation; assay type: biochemical; conditions: peptide substrate phosphorylated by FES - WT
ABL1 = ABL1 (Homo sapiens, UniProt P00519); test: PamChip microarray peptide phosphorylation; conditions: peptide substrate phosphorylated by ABL1
CSK = CSK (Homo sapiens, UniProt P41240); test: PamChip microarray peptide phosphorylation; conditions: peptide substrate phosphorylated by CSK
FGR = FGR (Homo sapiens, UniProt P09769); test: PamChip microarray peptide phosphorylation; conditions: peptide substrate phosphorylated by FGR
LYN = LYN (Homo sapiens, UniProt P07948); test: PamChip microarray peptide phosphorylation; conditions: peptide substrate phosphorylated by LYN
SYK = SYK (Homo sapiens, UniProt P43405); test: PamChip microarray peptide phosphorylation; conditions: peptide substrate phosphorylated by SYK

Chain of CSK (P41240 whole entry): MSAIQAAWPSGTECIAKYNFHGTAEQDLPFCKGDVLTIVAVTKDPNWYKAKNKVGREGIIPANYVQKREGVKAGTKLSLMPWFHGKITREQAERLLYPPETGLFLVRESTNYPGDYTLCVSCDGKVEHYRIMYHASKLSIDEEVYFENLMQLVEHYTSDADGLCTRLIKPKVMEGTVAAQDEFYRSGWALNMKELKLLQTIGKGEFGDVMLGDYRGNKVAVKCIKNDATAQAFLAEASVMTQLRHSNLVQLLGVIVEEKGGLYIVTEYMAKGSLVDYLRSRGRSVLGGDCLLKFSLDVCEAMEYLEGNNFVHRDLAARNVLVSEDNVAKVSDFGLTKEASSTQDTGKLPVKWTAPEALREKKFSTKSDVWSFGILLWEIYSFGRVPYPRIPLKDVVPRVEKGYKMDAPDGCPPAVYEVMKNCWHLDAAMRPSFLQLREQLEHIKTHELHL
Chain of LYN (P07948 whole entry): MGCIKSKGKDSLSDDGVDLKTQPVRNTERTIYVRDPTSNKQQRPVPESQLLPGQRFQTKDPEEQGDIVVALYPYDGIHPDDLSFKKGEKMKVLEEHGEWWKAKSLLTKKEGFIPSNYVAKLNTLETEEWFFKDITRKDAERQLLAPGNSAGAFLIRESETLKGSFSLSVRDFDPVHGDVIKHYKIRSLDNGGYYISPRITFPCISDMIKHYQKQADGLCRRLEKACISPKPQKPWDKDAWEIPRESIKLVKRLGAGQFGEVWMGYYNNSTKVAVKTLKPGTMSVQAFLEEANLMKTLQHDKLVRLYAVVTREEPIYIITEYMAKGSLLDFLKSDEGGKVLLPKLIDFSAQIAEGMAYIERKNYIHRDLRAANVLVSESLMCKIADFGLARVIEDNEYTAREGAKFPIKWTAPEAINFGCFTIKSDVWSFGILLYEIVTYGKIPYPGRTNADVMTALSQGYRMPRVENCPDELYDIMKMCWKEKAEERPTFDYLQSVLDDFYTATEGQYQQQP
T1 sequence (P07332 448-822): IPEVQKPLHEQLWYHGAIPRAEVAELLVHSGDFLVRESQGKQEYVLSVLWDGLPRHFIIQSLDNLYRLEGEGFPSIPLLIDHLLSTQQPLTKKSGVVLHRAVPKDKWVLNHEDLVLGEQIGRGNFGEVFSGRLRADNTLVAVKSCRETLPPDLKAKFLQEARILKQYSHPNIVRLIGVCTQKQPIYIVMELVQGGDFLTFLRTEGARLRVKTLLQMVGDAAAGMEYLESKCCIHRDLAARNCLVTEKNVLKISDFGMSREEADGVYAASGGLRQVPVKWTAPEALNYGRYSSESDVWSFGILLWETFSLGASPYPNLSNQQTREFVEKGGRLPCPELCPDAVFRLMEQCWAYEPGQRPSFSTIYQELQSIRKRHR
Chain of ABL1 (P00519 whole entry): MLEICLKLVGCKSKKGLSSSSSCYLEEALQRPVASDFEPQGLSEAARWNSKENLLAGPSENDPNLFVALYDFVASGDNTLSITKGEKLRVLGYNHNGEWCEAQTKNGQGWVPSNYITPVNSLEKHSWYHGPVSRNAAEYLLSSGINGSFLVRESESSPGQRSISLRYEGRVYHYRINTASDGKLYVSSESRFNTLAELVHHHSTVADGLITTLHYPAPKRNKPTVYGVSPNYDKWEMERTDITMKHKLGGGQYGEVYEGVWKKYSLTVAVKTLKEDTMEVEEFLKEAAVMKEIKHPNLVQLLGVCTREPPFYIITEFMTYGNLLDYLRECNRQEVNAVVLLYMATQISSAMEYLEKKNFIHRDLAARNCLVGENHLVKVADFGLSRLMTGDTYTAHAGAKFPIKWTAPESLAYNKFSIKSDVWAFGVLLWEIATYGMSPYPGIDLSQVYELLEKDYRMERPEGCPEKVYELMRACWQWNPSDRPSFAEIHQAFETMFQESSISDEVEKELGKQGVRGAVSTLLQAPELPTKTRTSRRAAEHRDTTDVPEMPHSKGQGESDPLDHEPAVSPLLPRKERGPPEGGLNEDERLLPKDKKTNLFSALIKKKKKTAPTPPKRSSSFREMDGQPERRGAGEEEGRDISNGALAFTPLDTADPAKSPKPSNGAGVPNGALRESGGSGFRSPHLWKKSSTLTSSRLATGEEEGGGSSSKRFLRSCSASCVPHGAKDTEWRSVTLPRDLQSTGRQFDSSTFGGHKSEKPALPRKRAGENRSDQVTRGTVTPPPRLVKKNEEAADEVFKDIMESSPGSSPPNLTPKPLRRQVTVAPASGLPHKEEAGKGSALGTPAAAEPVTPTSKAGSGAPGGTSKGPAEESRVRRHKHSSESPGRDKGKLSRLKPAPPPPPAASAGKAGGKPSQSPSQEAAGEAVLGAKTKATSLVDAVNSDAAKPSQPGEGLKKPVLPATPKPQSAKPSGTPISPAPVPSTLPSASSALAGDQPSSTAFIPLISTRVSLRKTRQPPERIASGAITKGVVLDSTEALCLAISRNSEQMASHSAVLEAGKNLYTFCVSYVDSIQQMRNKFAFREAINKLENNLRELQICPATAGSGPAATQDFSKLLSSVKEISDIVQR
Chain of FES^S700C (P07332 448-822 S700C): as the sequence (P07332 448-822) above, with S253C counted along it

## C=CC(=O)Nc1cccc(Nc2nc(Nc3ccccc3OC)ncc2Cl)c1 [Compound 3]
FES^WT [1]
  pIC50 FES^WT: 6.5 ± 0.06
FES^S700C; IC50 on FES^WT divided by IC50 on FES^S700C
  Apparent fold selectivity: 0.65 fold
FES^S700C; TR-FRET assay, 5 µM ATP, n = 3
  pIC50 FES^S700C: 6.3 ± 0.06

## VGFR1_1320_1332_C1320K/C1321K (KKSPPPDYNSVVL; UniProt P17948 1320-1332, looked up, variant C1320K C1321K)
FES^WT [2]
  Relative phosphorylation (% of highest signal): 2.0 % of highest signal
ABL1
  Relative phosphorylation (% of highest signal): -0.0535 % of highest signal
CSK
  Relative phosphorylation (% of highest signal): -0.847 % of highest signal
FGR
  Relative phosphorylation (% of highest signal): -2.8 % of highest signal
LYN
  Relative phosphorylation (% of highest signal): -0.28 % of highest signal
SYK
  Relative phosphorylation (% of highest signal): 4.3 % of highest signal

## VGFR2_944_956 (RFRQGKDYVGAIP; UniProt P35968 944-956, looked up, fragment)
FES^WT [2]
  Relative phosphorylation (% of highest signal): 0.741 % of highest signal
ABL1
  Relative phosphorylation (% of highest signal): -0.378 % of highest signal
CSK
  Relative phosphorylation (% of highest signal): -0.8 % of highest signal
FGR
  Relative phosphorylation (% of highest signal): -1.0 % of highest signal
LYN
  Relative phosphorylation (% of highest signal): -0.364 % of highest signal
SYK
  Relative phosphorylation (% of highest signal): 0.9 % of highest signal

## VGFR2_989_1001 (EEAPEDLYKDFLT; UniProt P35968 989-1001, looked up, fragment)
FES^WT [2]
  Relative phosphorylation (% of highest signal): 10.0 % of highest signal
ABL1
  Relative phosphorylation (% of highest signal): 2.3 % of highest signal
CSK
  Relative phosphorylation (% of highest signal): 30.5 % of highest signal
FGR
  Relative phosphorylation (% of highest signal): 21.5 % of highest signal
LYN
  Relative phosphorylation (% of highest signal): 2.8 % of highest signal
SYK
  Relative phosphorylation (% of highest signal): 15.3 % of highest signal

## VGFR2_1046_1058 (DFGLARDIYKDPD; UniProt P35968 1046-1058, looked up, fragment)
FES^WT [2]
  Relative phosphorylation (% of highest signal): 1.1 % of highest signal
ABL1
  Relative phosphorylation (% of highest signal): -0.11 % of highest signal
CSK
  Relative phosphorylation (% of highest signal): 2.2 % of highest signal
FGR
  Relative phosphorylation (% of highest signal): 1.2 % of highest signal
LYN
  Relative phosphorylation (% of highest signal): 0.243 % of highest signal
SYK
  Relative phosphorylation (% of highest signal): 0.6 % of highest signal

## VGFR2_1168_1180 (AQQDGKDYIVLPI; UniProt P35968 1168-1180, looked up, fragment)
FES^WT [2]
  Relative phosphorylation (% of highest signal): 6.1 % of highest signal
ABL1
  Relative phosphorylation (% of highest signal): 0.014 % of highest signal
CSK
  Relative phosphorylation (% of highest signal): 0.544 % of highest signal
FGR
  Relative phosphorylation (% of highest signal): -1.8 % of highest signal
LYN
  Relative phosphorylation (% of highest signal): 0.147 % of highest signal
SYK
  Relative phosphorylation (% of highest signal): 2.7 % of highest signal

## VGFR2_1207_1219_C1208S (VSDPKFHYDNTAG; UniProt P35968 1207-1219, looked up, variant C1208S)
FES^WT [2]
  Relative phosphorylation (% of highest signal): 0.5 % of highest signal
ABL1
  Relative phosphorylation (% of highest signal): -0.742 % of highest signal
CSK
  Relative phosphorylation (% of highest signal): -1.4 % of highest signal
FGR
  Relative phosphorylation (% of highest signal): -0.6 % of highest signal
LYN
  Relative phosphorylation (% of highest signal): -0.213 % of highest signal
SYK
  Relative phosphorylation (% of highest signal): -1.4 % of highest signal

## VGFR3_1061_1073 (DIYKDPDYVRKGS; UniProt P35916 1061-1073, looked up, fragment)
FES^WT [2]
  Relative phosphorylation (% of highest signal): -0.0595 % of highest signal
ABL1
  Relative phosphorylation (% of highest signal): 2.9 % of highest signal
CSK
  Relative phosphorylation (% of highest signal): 0.341 % of highest signal
FGR
  Relative phosphorylation (% of highest signal): 0.468 % of highest signal
LYN
  Relative phosphorylation (% of highest signal): 0.0483 % of highest signal
SYK
  Relative phosphorylation (% of highest signal): 2.4 % of highest signal

## VINC_815_827 (KSFLDSGYRILGA; UniProt P18206 815-827, looked up, fragment)
FES^WT [2]
  Relative phosphorylation (% of highest signal): 0.223 % of highest signal
ABL1
  Relative phosphorylation (% of highest signal): 1.1 % of highest signal
CSK
  Relative phosphorylation (% of highest signal): -0.442 % of highest signal
FGR
  Relative phosphorylation (% of highest signal): -2.6 % of highest signal
LYN
  Relative phosphorylation (% of highest signal): -0.3 % of highest signal
SYK
  Relative phosphorylation (% of highest signal): -1.0 % of highest signal

## ZAP70_485_497 (ALGADDSYYTARS; UniProt P43403 485-497, looked up, fragment)
FES^WT [2]
  Relative phosphorylation (% of highest signal): 3.5 % of highest signal
ABL1
  Relative phosphorylation (% of highest signal): -0.0741 % of highest signal
CSK
  Relative phosphorylation (% of highest signal): 0.277 % of highest signal
FGR
  Relative phosphorylation (% of highest signal): 7.8 % of highest signal
LYN
  Relative phosphorylation (% of highest signal): 1.0 % of highest signal
SYK
  Relative phosphorylation (% of highest signal): 10.4 % of highest signal

## ZBT16_621_633 (LRTHNGASPYQCT; UniProt Q05516 621-633, looked up, fragment)
FES^WT [2]
  Relative phosphorylation (% of highest signal): 0.657 % of highest signal
ABL1
  Relative phosphorylation (% of highest signal): -0.119 % of highest signal
CSK
  Relative phosphorylation (% of highest signal): -0.468 % of highest signal
FGR
  Relative phosphorylation (% of highest signal): 3.8 % of highest signal
LYN
  Relative phosphorylation (% of highest signal): -0.2 % of highest signal
SYK
  Relative phosphorylation (% of highest signal): -1.0 % of highest signal

From paper PMC7316778 (Nature Communications, 2020)
